According to US20210024607A1, “EXPRESSION VECTORS FOR CHIMERIC ENGULFMENT RECEPTORS, GENETICALLY MODIFIED HOST CELLS, AND USES THEREOF” (CERo Therapeutics, Inc., priority 2018, published 2021):

What was measured:
[1] = test system: HPV+ SCC152 head and neck cancer cells; assay: FACS phagocytosis assay with pHrodo-labeled SCC152 cells; type: cell-based, human; settings: CellTrace-violet labeled T cells, compared with mock transduced T cells
Experimental: CellTrace-violet labeled mock transduced, HPV E7-TCR transduced T cells, and HPV E7-TCR/CER29 tandem expression cassette transduced T cells were co-cultured pHrodo-red labeled HPV+SCC152 head and neck cancer cells.
The ability of CER modified-T cells to engulf target cells and recapitulate engulfment-signaling events was evaluated in co-culture assays. T cells were transduced with a nucleic acid encoding HPV E7 specific TCR (polypeptide sequence comprising SEQ ID NO:158) or tandem expression cassette encoding HPV E7 specific TCR+ CER29 (polypeptide sequence comprising SEQ ID NO:169). pHrodo-labeled HPV+ SCC152 head and neck cancer cells were co-incubated with mock transduced T cells, HPV E7 TCR transduced T cells, or HPV E7 TCR/CER29-transduced T cells.

[2] = test system: phosphatidylserine-coated beads; assay: Phagocytic uptake of phosphatidylserine-coated latex beads; type: cell-based, human; settings: 30 minutes incubation, transduced CD8+ T cells
Text: Streptavidin coated latex beads were bound with biotin-phosphatidylserine and used for phagocytosis assays.

B1: HPV16 E7 TCR: HPV16 E7 specific TCR (WO2015/184228), SEQ ID NO:90; control transduced alone into T cells (protein)
chain: MAPGLLCWALLCLLGAGLVDAGVTQSPTHLIKTRGQQVTLRCSPKSGHDTVSWYQQALGQGPQFIFQYYEEEERQRGNFPDRFSGHQFPNYSSELNVNALLLGDSALYLCASSLGWRGGRYNEQFFGPGTRLTVLEDLRNVTPPKVSLFEPSKAEIANKQKATLVCLARGFFPDHVELSWWVNGKEVHSGVCTDPQAYKESNYSYCLSSRLRVSATFWHNPRNHFRCQVQFHGLSEEDKWPEGSPKPVTQNISAEAWGRADCGITSASYQQGVLSATILYEILLGKATLYAVLVSTLVVMAMVKRKNSRAKRSGSGATNFSLLKQAGDVEENPGPMWGVFLLYVSMKMGGTTGQNIDQPTEMTATEGAIVQINCTYQTSGFNGLFWYQQHAGEAPTFLSYNVLDGLEEKGRFSSFLSRSKGYSYLLLKELQMKDSASYLCASVDGNNRLAFGKGNQVVVIPNIQNPEPAVYQLKDPRSQDSTLCLFTDFDSQINVPKTMESGTFITDKCVLDMKAMDSKSNGAIAWSNQTSFTCQDIFKETNATYPSSDVPCDATLTEKSFETDMNLNFQNLLVIVLRILLLKVAGFNLLMTLRLWSS
modifications: HPV16 E7 TCRbeta chain-P2A-TCRalpha chain
notes: control transduced alone into T cells
In the case of B1, the “phagocytosis of pHrodo-labeled SCC152 cells by FACS” value [1] is reported as “no difference in phagocytosis between mock-transduced T cells and E7 TCR transduced T cells” and the “uptake of phosphatidylserine-coated latex beads” value [2] is reported as “do not exhibit uptake of latex beads coated with phosphatidylserine”.
